From US10654939

Tests used:
[1] = target: human CD40 expressed on cells (human) (UniProt P25942); test: cell-based or functional assay
[2] = target: recombinant human CD40 (ECD)-his (human) (UniProt P25942); test: ELISA, hCD40(ECD)-his coated
[3] = target: recombinant rhesus CD40 (ECD)-hFc (rhesus monkey); test: ELISA, rhCD40(ECD)-hFc coated
[4] = target: human CD40 expressed on cells (human) (UniProt P25942); test: FACS, HEK293A/humanCD40 cells
[5] = target: rhesus CD40 expressed on HEK293A cells (rhesus monkey); test: FACS, HEK293A/rhesusCD40 cells
[6] = target: recombinant human CD40 (ECD)-his (human) (UniProt P25942); test: SPR (Biacore 8K), hCD40(ECD)-his coupled to chip, antibody injected

recombinant human CD40 (ECD)-his (human), sequence (P25942 21-193): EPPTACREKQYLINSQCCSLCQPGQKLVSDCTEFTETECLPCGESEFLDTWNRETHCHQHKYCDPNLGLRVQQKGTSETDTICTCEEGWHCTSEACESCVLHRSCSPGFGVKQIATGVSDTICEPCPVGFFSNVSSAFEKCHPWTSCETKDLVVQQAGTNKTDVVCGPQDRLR
human CD40 expressed on cells (human), sequence (P25942 21-277 limits assumed): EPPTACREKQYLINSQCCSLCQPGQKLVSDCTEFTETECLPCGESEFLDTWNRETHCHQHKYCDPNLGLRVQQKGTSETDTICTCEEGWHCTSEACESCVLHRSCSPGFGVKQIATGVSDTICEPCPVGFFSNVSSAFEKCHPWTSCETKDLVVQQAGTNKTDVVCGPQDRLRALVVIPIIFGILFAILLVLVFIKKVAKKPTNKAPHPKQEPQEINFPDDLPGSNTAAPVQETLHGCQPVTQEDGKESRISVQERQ
recombinant rhesus CD40 (ECD)-hFc (rhesus monkey), sequence (P25942 other isoform, or with tags, fused parts or gaps): as the sequence (P25942 21-193) above, with G43S, H56R, W89L, T92M, A95S, L101P, S106L, H142R, L172Q counted along it
rhesus CD40 expressed on HEK293A cells (rhesus monkey), sequence (P25942 other isoform, or with tags, fused parts or gaps limits assumed): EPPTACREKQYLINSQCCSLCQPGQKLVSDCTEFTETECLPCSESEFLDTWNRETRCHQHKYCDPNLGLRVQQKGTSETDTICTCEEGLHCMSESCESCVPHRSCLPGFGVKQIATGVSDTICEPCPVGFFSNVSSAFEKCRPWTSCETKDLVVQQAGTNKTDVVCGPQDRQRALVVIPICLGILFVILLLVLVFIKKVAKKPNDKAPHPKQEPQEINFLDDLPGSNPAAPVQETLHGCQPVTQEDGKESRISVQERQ

HEK Blue EC50 [1]: 1.03 µg/mL
EC50 [2]: 0.024 µg/mL
EC50 [3]: 0.0229 µg/mL
EC50 [4]: 0.149 µg/mL
EC50 [5]: 0.0673 µg/mL
Kd [6]: 29 nM
koff [6]: 0.0348 s⁻¹
kon [6]: 1.2e+06 M⁻¹ s⁻¹
B1: ADC1013 (antibody, INN chains, looked up, V domains shown)
VH: EVQLLESGGGLVQPGGSLRLSCAASGFTFSTYGMHWVRQAPGKGLEWLSYISGGSSYIFYADSVRGRFTISRDNSENALYLQMNSLRAEDTAVYYCARILRGGSGMDLWGQGTLVTVSS
VL: QSVLTQPPSASGTPGQRVTISCTGSSSNIGAGYNVYWYQQLPGTAPKLLIYGNINRPSGVPDRFSGSKSGTSASLAISGLRSEDEADYYCAAWDKSISGLVFGGGTKLTVL
modifications: IgG1/kappa
